Assay results from the RNAGym collection of RNA variant scans (doi:10.7554/elife.80360).

B1: CPEB3 Ribozyme (parent)
chain: GGGGGCCACAGCAGAAGCGUUCACGUCGCGGCCCCUGUCAGAUUCUGGUGAAUCUGCGAAUUCUGCUGU

Variants of: B1
Assay: self-cleavage, relative activity (ratio to wild type); higher = more cleavage; co-transcriptional

| Variant | self-cleavage |
| --- | --- |
| C33U A60C | 0.319 |
| G31A U64C | 0.757 |
| G31A U64A | 0.511 |
| C32G U61G | 0.342 |
| C32G U61C | 0.285 |
| G31U G50A | 0.758 |
| C33A U62C | 0.584 |
| C33A U62G | 0.559 |
| C33U U55G | 0.8 |
| C33U U55C | 0.685 |
| G31U C35A | 0.26 |
| G31U C35U | 0.363 |
| G31C G65C | 0.185 |
| C33U C54G | 0.828 |
| C33U C54A | 0.868 |
| G31C U55G | 0.136 |
| G31C G68A | 0.515 |
| C32U U64C | 0.899 |
| C32U U64A | 0.992 |
| C33A C34U | 0.489 |
| C33G G56U | 0.458 |
| C33G G56A | 0.496 |
| G31C A51G | 0.364 |
| G31C A51C | 0.161 |

| Variant | self-cleavage |
| --- | --- |
| G31C A51U | 0.237 |
| C33U U44A | 1.01 |
| C33U U44C | 0.938 |
| C34A A52U | 0.664 |
| C33U U38A | 0.913 |
| C32A G56C | 0.478 |
| G31C U67C | 0.358 |
| C32G U53C | 0.217 |
| C32G U53G | 0.382 |
| C33U C39G | 0.918 |
| C33U C39U | 0.932 |
| G31A U69C | 1.03 |
| G31A U69A | 0.991 |
| G31C U43A | 0.193 |
| G31U G41C | 0.283 |
| G31U G41A | 0.348 |
| C33G U62C | 0.358 |
| G31U C34U | 0.363 |
| C33A G56A | 0.758 |
| C33A C39U | 0.367 |
| C33A C39G | 0.436 |
| C33A C39A | 0.286 |
| C34A A40C | 0.291 |
| C33U G68A | 1.01 |

| Variant | self-cleavage |
| --- | --- |
| C33U G68U | 1.02 |
| C32A G37U | 0.18 |
| C32A G37A | 0.263 |
| G31C A40C | 0.203 |
| G31C A40U | 0.165 |
| G31C U69C | 0.451 |
| G31C U69A | 0.381 |
| G31U A52C | 0.556 |
| C32G C63U | 0.358 |
| C32G C63G | 0.233 |
| G31U A42U | 0.485 |
| C33U G58A | 1 |
| C33U G58U | 0.974 |
| C33U G58C | 1.01 |
| C32U C35U | 0.77 |
| C32U C35A | 0.25 |
| C33G C54A | 0.369 |
| G31C C35G | 0.141 |
| G31U U55A | 0.428 |
| C32G C57A | 0.252 |
| C32G C57U | 0.234 |
| G31U U69G | 1.02 |
| C33G A59G | 0.516 |
| C33G A59U | 0.362 |

| Variant | self-cleavage |
| --- | --- |
| C34A A42U | 0.491 |
| C34A A42G | 0.765 |
| C33A A42C | 0.405 |
| C33A A42G | 0.685 |
| C33A A42U | 0.499 |
| C32U C39A | 0.915 |
| C32U C39G | 0.996 |
| G31C G41U | 0.217 |
| C33G U67A | 0.857 |
| C33G U67G | 0.93 |
| C33U C66A | 0.884 |
| C33U C66U | 0.98 |
| C32G A59C | 0.243 |
| C33U C57G | 0.247 |
| C33U C57A | 0.323 |
| C32A A51C | 0.391 |
| C32A A51U | 0.566 |
| C33G G58A | 0.545 |
| C32U U44G | 0.941 |
| C32U U44C | 0.938 |
| C32G C45U | 0.573 |
| C32G C45A | 0.381 |
| G31C G50A | 0.214 |
| C33A U43A | 0.311 |

| Variant | self-cleavage |
| --- | --- |
| C32G C39A | 0.282 |
| C32G C39G | 0.389 |
| C32G G48C | 0.604 |
| G31C C33U | 0.45 |
| C33G A42C | 0.314 |
| C33G A42G | 0.522 |
| C33G G37C | 0.16 |
| C33A G65A | 0.786 |
| C33A G65U | 0.451 |
| C32G U36A | 0.255 |
| C32G U36C | 0.215 |
| G31U A40U | 0.352 |
| C33G G41A | 0.323 |
| C33G G41C | 0.27 |
| C32G C66A | 0.256 |
| C32G C66U | 0.394 |
| C32U G48U | 0.964 |
| C32U G48A | 1 |
| C32U G48C | 0.984 |
| C32U C33G | 0.374 |
| C32U A60U | 0.478 |
| C32U A60C | 0.363 |
| C32G C35U | 0.377 |
| C33A G50U | 0.893 |

| Variant | self-cleavage |
| --- | --- |
| C32G U64C | 0.311 |
| C33G U38G | 0.324 |
| C33G U38C | 0.45 |
| G31U U67C | 0.939 |
| G31U U64G | 0.479 |
| G31C U62C | 0.258 |
| G31C U62A | 0.151 |
| C32A C39G | 0.6 |
| C32A A42G | 0.448 |
| C32A C66G | 0.708 |
| G31C U53G | 0.139 |
| G31C U53C | 0.237 |
| C33U U43C | 0.939 |
| C32U U62A | 0.979 |
| C32U U62C | 0.955 |
| C32G G47U | 0.514 |
| G31U C45U | 0.789 |
| C32A U49G | 0.626 |
| C32G C34A | 0.303 |
| C32G C34G | 0.212 |
| G31U G65A | 0.517 |
| C32G G50A | 0.554 |
| C32U U67G | 1.04 |
| C32U U67C | 0.959 |

| Variant | self-cleavage |
| --- | --- |
| C33A A60C | 0.346 |
| G31C C32G | 0.249 |
| C32A C35U | 0.333 |
| C32A C35G | 0.163 |
| C32U U53C | 0.875 |
| C32A U53A | 0.501 |
| C32G G65U | 0.267 |
| C32G G58C | 0.478 |
| C32G G58U | 0.622 |
| C32U G65U | 0.806 |
| C33G U43C | 0.391 |
| C33G U43A | 0.299 |
| C32U G37C | 0.241 |
| C32U G37A | 0.288 |
| C32G A42C | 0.343 |
| C32G A42G | 0.569 |
| C32G A42U | 0.44 |
| G31C U44C | 0.27 |
| G31C C34A | 0.341 |
| C34A A59C | 0.302 |
| G31C A59G | 0.255 |
| C33A G48A | 0.95 |
| C33A G58A | 0.811 |
